This note sets out measurements from patent US20260125711, “RNA-GUIDED NUCLEASES AND ACTIVE FRAGMENTS AND VARIANTS THEREOF AND METHODS OF USE” (Life Edit Therapeutics, Inc., published 2026).

Common to all, as to settings: tags: N-terminal SV40 NLS and 3xFLAG; C-terminal nucleoplasmin NLS
The target of one data set is T1, LPG10168 (Bacillus toyonensis).
T1 chain: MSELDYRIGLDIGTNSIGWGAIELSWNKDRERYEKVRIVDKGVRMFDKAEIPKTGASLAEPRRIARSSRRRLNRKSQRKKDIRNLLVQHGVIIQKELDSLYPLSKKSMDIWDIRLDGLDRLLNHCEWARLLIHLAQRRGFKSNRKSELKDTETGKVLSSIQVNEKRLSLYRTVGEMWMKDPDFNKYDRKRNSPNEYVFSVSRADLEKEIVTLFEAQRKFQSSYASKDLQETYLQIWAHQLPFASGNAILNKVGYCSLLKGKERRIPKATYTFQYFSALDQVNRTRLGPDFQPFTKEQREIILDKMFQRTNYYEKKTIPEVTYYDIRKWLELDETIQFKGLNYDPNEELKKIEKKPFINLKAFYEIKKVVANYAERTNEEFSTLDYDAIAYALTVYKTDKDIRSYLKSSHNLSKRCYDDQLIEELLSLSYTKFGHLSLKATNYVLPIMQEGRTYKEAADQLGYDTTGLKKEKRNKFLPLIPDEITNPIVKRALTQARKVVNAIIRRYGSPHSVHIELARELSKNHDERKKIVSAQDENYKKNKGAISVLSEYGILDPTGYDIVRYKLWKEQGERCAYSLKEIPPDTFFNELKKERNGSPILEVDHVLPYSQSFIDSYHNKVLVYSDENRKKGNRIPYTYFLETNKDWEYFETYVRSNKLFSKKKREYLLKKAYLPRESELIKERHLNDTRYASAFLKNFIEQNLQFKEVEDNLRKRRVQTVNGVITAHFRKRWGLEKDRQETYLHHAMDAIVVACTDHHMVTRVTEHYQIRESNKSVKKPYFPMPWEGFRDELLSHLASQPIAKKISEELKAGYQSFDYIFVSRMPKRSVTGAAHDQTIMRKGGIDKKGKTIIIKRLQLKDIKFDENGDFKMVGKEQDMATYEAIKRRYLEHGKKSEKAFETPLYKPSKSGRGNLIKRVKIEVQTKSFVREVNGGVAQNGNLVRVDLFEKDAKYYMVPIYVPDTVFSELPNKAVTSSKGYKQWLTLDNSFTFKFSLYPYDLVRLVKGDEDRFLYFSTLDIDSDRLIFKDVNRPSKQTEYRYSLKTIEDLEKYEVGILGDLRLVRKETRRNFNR
Put plainly: cell_activity; PAM nnnnCC; HEK293T.

Another data set deals with T2, LPG10167 (Bacillus toyonensis).
T2 chain: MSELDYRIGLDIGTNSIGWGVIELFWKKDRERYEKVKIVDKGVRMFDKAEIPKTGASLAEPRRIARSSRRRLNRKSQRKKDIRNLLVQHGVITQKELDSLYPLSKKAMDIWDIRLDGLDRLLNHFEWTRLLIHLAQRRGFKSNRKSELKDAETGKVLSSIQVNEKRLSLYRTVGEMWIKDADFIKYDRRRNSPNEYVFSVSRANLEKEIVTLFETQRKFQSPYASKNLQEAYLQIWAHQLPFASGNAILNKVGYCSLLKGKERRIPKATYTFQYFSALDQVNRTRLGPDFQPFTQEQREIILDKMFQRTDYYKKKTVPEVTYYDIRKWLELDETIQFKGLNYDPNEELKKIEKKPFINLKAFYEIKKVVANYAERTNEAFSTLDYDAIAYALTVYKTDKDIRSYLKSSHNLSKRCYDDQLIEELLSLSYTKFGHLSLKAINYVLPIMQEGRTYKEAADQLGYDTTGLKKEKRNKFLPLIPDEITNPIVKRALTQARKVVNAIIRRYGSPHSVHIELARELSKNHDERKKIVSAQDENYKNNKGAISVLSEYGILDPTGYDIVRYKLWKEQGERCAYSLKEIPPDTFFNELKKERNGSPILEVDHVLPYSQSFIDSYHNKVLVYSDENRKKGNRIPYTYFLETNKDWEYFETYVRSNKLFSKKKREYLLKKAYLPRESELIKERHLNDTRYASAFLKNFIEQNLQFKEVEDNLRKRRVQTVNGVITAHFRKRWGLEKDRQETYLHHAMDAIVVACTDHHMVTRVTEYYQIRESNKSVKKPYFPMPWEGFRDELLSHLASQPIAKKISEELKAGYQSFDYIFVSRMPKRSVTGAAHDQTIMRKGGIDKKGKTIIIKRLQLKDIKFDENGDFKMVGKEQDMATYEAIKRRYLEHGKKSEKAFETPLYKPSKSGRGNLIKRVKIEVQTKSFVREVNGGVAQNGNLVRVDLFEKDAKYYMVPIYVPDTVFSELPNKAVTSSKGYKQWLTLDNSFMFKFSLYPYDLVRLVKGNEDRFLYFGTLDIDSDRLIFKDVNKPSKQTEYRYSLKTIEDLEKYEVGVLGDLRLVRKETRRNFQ
Briefly: cell_activity; PAM nnnnCC; HEK293T.

In another data set the target is T3, LPG10208.
T3 chain: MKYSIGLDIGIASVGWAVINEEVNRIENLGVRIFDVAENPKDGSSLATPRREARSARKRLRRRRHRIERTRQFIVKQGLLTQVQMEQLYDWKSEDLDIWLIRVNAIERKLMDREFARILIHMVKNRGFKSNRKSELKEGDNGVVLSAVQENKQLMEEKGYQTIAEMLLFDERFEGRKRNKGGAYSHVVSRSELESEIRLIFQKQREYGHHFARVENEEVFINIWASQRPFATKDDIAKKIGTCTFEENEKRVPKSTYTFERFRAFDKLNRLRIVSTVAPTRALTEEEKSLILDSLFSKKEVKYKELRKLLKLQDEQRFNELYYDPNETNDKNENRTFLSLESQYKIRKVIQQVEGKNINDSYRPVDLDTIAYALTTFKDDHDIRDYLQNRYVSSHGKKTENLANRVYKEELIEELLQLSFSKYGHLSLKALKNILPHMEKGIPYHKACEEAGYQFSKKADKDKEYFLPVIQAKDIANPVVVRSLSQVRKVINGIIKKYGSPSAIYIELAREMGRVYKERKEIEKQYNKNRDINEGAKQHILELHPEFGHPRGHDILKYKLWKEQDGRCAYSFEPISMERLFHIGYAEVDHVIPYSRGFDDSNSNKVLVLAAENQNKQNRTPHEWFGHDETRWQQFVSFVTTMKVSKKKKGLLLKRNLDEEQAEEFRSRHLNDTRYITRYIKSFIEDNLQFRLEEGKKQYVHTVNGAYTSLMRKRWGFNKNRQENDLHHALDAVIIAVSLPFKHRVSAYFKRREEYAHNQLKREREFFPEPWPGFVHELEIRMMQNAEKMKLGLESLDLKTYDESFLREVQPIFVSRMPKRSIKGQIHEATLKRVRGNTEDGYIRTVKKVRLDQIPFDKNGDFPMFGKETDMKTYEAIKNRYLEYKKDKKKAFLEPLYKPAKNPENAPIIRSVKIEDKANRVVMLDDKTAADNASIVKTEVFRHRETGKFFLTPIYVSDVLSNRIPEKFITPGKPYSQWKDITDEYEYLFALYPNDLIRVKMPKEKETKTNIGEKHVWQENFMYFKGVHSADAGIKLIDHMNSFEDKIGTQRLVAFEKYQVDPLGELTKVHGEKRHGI
Put plainly: cell_activity; PAM SEQ ID NOs 146, 147; HEK293T.

For another data set, the target named is T4, LPG10204.
T4 chain: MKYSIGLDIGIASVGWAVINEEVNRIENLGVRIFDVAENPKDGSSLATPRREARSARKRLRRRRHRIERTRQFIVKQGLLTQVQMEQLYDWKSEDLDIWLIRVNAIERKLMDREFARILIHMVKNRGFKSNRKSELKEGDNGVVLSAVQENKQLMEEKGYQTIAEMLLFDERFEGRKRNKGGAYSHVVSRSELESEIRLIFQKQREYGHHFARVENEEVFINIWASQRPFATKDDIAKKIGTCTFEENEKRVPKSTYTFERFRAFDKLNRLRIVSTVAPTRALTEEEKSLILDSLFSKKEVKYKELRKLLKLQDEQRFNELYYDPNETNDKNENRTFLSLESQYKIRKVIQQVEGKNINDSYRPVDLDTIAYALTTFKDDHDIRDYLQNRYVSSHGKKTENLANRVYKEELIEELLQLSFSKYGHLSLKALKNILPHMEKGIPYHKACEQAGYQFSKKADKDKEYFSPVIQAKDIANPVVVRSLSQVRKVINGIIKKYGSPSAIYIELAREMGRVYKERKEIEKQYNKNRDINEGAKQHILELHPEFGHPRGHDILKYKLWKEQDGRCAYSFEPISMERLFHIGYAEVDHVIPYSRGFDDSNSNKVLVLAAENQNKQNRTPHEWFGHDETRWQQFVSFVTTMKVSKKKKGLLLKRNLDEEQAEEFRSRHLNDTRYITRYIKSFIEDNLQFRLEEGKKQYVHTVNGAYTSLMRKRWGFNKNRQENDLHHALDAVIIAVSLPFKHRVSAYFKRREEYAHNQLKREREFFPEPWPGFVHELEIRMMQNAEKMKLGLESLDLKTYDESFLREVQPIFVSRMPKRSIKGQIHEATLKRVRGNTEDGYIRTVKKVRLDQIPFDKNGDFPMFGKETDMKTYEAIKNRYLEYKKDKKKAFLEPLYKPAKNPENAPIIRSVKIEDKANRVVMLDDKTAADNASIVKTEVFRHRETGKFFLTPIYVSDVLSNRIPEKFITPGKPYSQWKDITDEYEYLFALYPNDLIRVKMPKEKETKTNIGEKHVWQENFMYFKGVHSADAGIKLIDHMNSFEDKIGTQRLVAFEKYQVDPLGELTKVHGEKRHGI
Briefly: cell_activity; PAM SEQ ID NOs 146, 147; HEK293T.

Experimental for LPG10167: (§1) Several of the constructs described above were introduced into mammalian cells. One day prior to transfection, 1×10⁵ HEK293T cells (Sigma) were plated in 24-well dishes in Dulbecco's modified Eagle medium (DMEM) plus 10% (vol/vol) fetal bovine serum (Gibco) and 1% Penicillin-Streptomycin (Gibco). The next day when the cells were at 50-60% confluency, 500 ng of an RGN expression plasmid plus 500 ng of a single gRNA expression plasmid were co-transfected using 1.5 μL of Lipofectamine 3000 (Thermo Scientific) per well, following the manufacturer's instructions. After 48 hours of growth, total genomic DNA was harvested using a genomic DNA isolation kit (Machery-Nagel) according to the manufacturer's instructions.
(§2) Additionally, products from PCR #2 containing Illumina overhang sequences underwent library preparation following the Illumina 16S Metagenomic Sequencing Library protocol. Deep sequencing was performed on an Illumina Mi-Seq platform by a service provider (MOGene). Typically, 200,000 of 250 bp paired-end reads (2×100,000 reads) are generated per amplicon. […] Output alignments were hand-curated to confirm insertion and deletion sites as well as identify microhomology sites at the recombination sites. All experiments were performed in human cells.
Experimental for LPG10168: as §1, §2
Experimental for LPG10204: (§3) Guide RNAs targeting several genes were designed for robustness testing of multiple RGNs in HEK293T cells by plasmid delivery. These guides were tested under optimal editing conditions for HEK293T cells in a 96-well plate which involved seeding 10,000-15,000 cells on day 1, lipofection using Lipofectamine 3000 on day 2, and genomic DNA extraction on day 4. […] Then, 0.3 μl of Lipofectamine 3000 diluted in Opti-MEM was added to the plasmid mixture and incubated for 15 mins before adding to cells.
Experimental for LPG10208: as §3

B1: SGN003668 ; B2M target SGN003668 (ssRNA ; dsDNA)
RNA: GGAGAGACUCACGCUGGAUAGCCUCGUCAUAGUUCCAUUAAAGCCAUUAAAGAAUGGCUUUGAUGUUUCUAUGAUAAGGGUUUCGGCCCGUGGCGUUGGGGAUCGCCUGCCCAUUUCAAUGGGCUUCUCCCCAUUU
DNA 1: GGAGAGACTCACGCTGGATAGCCTC
DNA 2: GAGGCTATCCAGCGTGAGTCTCTCC
For B1, the activity in the data set with LPG10168 came out at 0.61 % indels.

B2: SGN003667 ; B2M target SGN003667 (ssRNA ; dsDNA)
RNA: AAGAGAGAGUAGCGCGAGCACAGCUGUCAUAGUUCCAUUAAAGCCAUUAAAGAAUGGCUUUGAUGUUUCUAUGAUAAGGGUUUCGGCCCGUGGCGUUGGGGAUCGCCUGCCCAUUUCAAUGGGCUUCUCCCCAUUU
DNA 1: AAGAGAGAGTAGCGCGAGCACAGCT
DNA 2: AGCTGTGCTCGCGCTACTCTCTCTT
Take B2: the activity with LPG10167 amounted to 1.16 % indels.

B3: SGN003669 ; B2M target SGN003669 (ssRNA ; dsDNA)
RNA: UGACAGCAUUCGGGCCGAGAUGUCUGUCAUAGUUCCAUUAAAGCCAUUAAAGAAUGGCUUUGAUGUUUCUAUGAUAAGGGUUUCGGCCCGUGGCGUUGGGGAUCGCCUGCCCAUUUCAAUGGGCUUCUCCCCAUUU
DNA 1: TGACAGCATTCGGGCCGAGATGTCT
DNA 2: AGACATCTCGGCCCGAATGCTGTCA
B3: the activity in the data set with LPG10168 was 3.68 % indels.

B4: SGN005373 ; SGN005373 target (LPG10208) (ssRNA ; dsDNA)
RNA: UAGCCUCCAGGCCAGAAAGAGAGAGGCCAUAAUUCCUCCAAAGGGAGUUAUUAUGGUAAGGCAUUAUGCCGUGGCGUUGGGGAUCGCCUACAUCCGAUUAGAUCGGAUUCUCCCUAAAAAUGACUAACUUUGUUUAGUCAUUUUUUU
DNA 1: TAGCCTCCAGGCCAGAAAGAGAGAG
DNA 2: CTCTCTCTTTCTGGCCTGGAGGCTA
Take B4: in the data set with LPG10208, the activity was found to be 37.5 % indels.

B5: SGN005382 ; SGN005382 target (ssRNA ; dsDNA)
RNA: CUCUCUUUCUGGCCUGGAGGCUAUCGCCAUAAUUCCUCCAAAGGGAGUUAUUAUGGUAAGGCAUUAUGCCGUGGCGUUGGGGAUCGCCUACAUCCGAUUAGAUCGGAUUCUCCCUAAAAAUGACUAACUUUGUUUAGUCAUUUUUUU
DNA 1: CTCTCTTTCTGGCCTGGAGGCTATC
DNA 2: GATAGCCTCCAGGCCAGAAAGAGAG
In turn, B5 gave an activity in the data set with LPG10204 of 25.5 % indels.

B6: SGN005374 ; SGN005374 target (ssRNA ; dsDNA)
RNA: AGUAGCGCGAGCACAGCUAAGGCCAGCCAUAAUUCCUCCAAAGGGAGUUAUUAUGGUAAGGCAUUAUGCCGUGGCGUUGGGGAUCGCCUACAUCCGAUUAGAUCGGAUUCUCCCUAAAAAUGACUAACUUUGUUUAGUCAUUUUUUU
DNA 1: AGTAGCGCGAGCACAGCTAAGGCCA
DNA 2: TGGCCTTAGCTGTGCTCGCGCTACT
Turning to B6, in the data set with LPG10204, the activity is 37.5 % indels.

B7: SGN005374 ; SGN005374 target (LPG10208) (ssRNA ; dsDNA)
RNA: AGUAGCGCGAGCACAGCUAAGGCCAGCCAUAAUUCCUCCAAAGGGAGUUAUUAUGGUAAGGCAUUAUGCCGUGGCGUUGGGGAUCGCCUACAUCCGAUUAGAUCGGAUUCUCCCUAAAAAUGACUAACUUUGUUUAGUCAUUUUUUU
DNA 1: AGTAGCGCGAGCACAGCTAAGGCCA
DNA 2: TGGCCTTAGCTGTGCTCGCGCTACT
In the data set with LPG10208, B7 displayed an activity of 47.2 % indels.
